The target in one test is HLA-A*26:02. The experiment in a line: IEDB peptide-MHC binding, purified MHC/competitive/fluorescence; filed as Kd, often an IC50 or EC50 that approximates it; ≥ and ≤ were set here for values at or beyond the usual limits of such assays.
The target in test [1] is HLA-B*08:01. The test is described as above. Particulars: source organism: Vaccinia virus Copenhagen.
The target in test [2] is HLA-A*02:01. The description is as above. Particulars: source organism: Vaccinia virus Copenhagen.
In test [3] the target is HLA-B*18:01. The test is described as above. As to conditions: source organism: Vaccinia virus Copenhagen.
The target of another test is HLA-A*02:06. Described as above.
In test [4] the target is HLA-A*68:02. The test is described as above. Particulars: source organism: Vaccinia virus Copenhagen.
The next test concerns the target HLA-B*15:17. The test is described as above.
Test [5] addresses HLA-B*15:01. The description is as above.
In another test the target is HLA-A*26:03. Described as above. As to conditions: source organism: Vaccinia virus Copenhagen.
Another test deals with HLA-B*58:01. The experiment in a line: IEDB peptide-MHC binding, purified MHC/direct/fluorescence; filed as Kd, often an IC50 or EC50 that approximates it; ≥ and ≤ were set here for values at or beyond the usual limits of such assays.
The next test concerns the target HLA-B*40:01. Described as above.
Test [6] concerns the target HLA-B*48:01. Described as above. As to conditions: source organism: Camelpox virus M-96.
The target of test [7] is HLA-B*07:02. The test is described as above.
A further test addresses HLA-B*46:01. The test is described as above.
A further test concerns the target HLA-A*31:01. The test is described as above.
Test [8] deals with HLA-A*01:01. The test is described as above. As to conditions: source organism: Camelpox virus M-96.
The target in a further test is HLA-A*69:01. The test is described as above.
A further test has as its target HLA-A*11:01. The test is described as above.
In a further test the target is HLA-A*03:01. Described as above.
In a further test the target is HLA-B*57:01. The description is as above.
Another test deals with HLA-A*24:03. The test is described as above.
The next test addresses HLA-C*04:01. Described as above.
The next test concerns the target HLA-C*05:01. Described as above. Particulars: source organism: Mycobacterium tuberculosis C.
For test [9], the target named is HLA-B*07:02. Put plainly: IEDB peptide-MHC binding, purified MHC/competitive/fluorescence; filed as Kd, often an IC50 or EC50 that approximates it; ≥ and ≤ were set here for values at or beyond the usual limits of such assays.
Test [10] has as its target HLA-A*01:01. The description is as above. Particulars: source organism: Vaccinia virus Tian Tan.
Test [11] deals with HLA-B*08:01. The experiment in a line: IEDB peptide-MHC binding, purified MHC/direct/fluorescence; filed as Kd, often an IC50 or EC50 that approximates it; ≥ and ≤ were set here for values at or beyond the usual limits of such assays. As to conditions: source organism: Variola virus.
The target in test [12] is HLA-A*02:01. The description is as above.
For test [13], the target named is HLA-B*18:01. Described as above. As to conditions: source organism: Camelpox virus CMS.
The target in the next test is HLA-B*08:02. The test is described as above. As to conditions: source organism: Variola virus.
For test [14], the target named is HLA-A*68:02. The description is as above. As to conditions: source organism: Camelpox virus CMS.
The target in another test is HLA-C*07:02. Described as above.
A further test has as its target HLA-A*26:01. Described as above. As to conditions: source organism: Variola virus.
In test [15] the target is HLA-B*48:01. Put plainly: IEDB peptide-MHC binding, purified MHC/competitive/fluorescence; filed as Kd, often an IC50 or EC50 that approximates it; ≥ and ≤ were set here for values at or beyond the usual limits of such assays. Particulars: source organism: Giardia lamblia ATCC 50803.
Another test addresses HLA-A*02:50. The description is as above.
For test [16], the target named is HLA-A*24:02. The experiment in a line: IEDB peptide-MHC binding, purified MHC/direct/fluorescence; filed as Kd, often an IC50 or EC50 that approximates it; ≥ and ≤ were set here for values at or beyond the usual limits of such assays. Particulars: source organism: Escherichia coli O157:H7.
The target of a further test is HLA-B*27:05. The test is described as above. Particulars: source organism: Escherichia coli O157:H7.
For test [17], the target named is HLA-B*15:01. Described as above. As to conditions: source organism: Escherichia coli O157:H7.
The next test has as its target HLA-B*44:02. Described as above. As to conditions: source organism: Escherichia coli O157:H7.
The next test concerns the target HLA-C*12:03. The description is as above. As to conditions: source organism: Coxiella burnetii RSA 331.
Test [18] addresses HLA-A*24:02. Put plainly: IEDB peptide-MHC binding, purified MHC/competitive/fluorescence; filed as Kd, often an IC50 or EC50 that approximates it; ≥ and ≤ were set here for values at or beyond the usual limits of such assays.
The target in test [19] is HLA-A*24:02. The experiment in a line: IEDB peptide-MHC binding, purified MHC/competitive/fluorescence; ≥ and ≤ were set here for values at or beyond the usual limits of such assays. Particulars: source organism: Bos taurus.
Another test deals with HLA-B*35:01. The description is as above. Particulars: source organism: Bos taurus.
[20] abbreviates: source organism: Vaccinia virus Copenhagen.
Setting [21] is: source organism: Camelpox virus M-96.
Where [22] appears, read: source organism: Vaccinia virus Tian Tan.
[23] abbreviates: source organism: Camelpox virus CMS.
The mark [24] stands for this setting: source organism: Escherichia coli O157:H7.
[25] abbreviates: source organism: Coxiella burnetii.
Where [26] appears, read: source organism: West Nile virus.
Setting [27] is: source organism: Tokudaia muenninki.

pIC50, pKd: −log10 of the molar value. Where only a bound is given, the exact number is not on record here.

As for ALYSYASAK, the pKd with HLA-A*26:02 (setting [20]) was at most 4.70; in the test with HLA-B*08:01 [1] it was at most 4.70; in the test with HLA-A*02:01 [2], 7.25; with HLA-B*18:01 [3], at most 4.70; in the test with HLA-A*02:06 (setting [20]) it was 6.57; with HLA-A*68:02 [4], at most 4.70. In addition, the negative-log Kd (pKd) was at most 4.70 in the test with HLA-B*15:17 (setting [20]); at most 4.70 with HLA-B*15:01 [5] (setting [20]); 6.31 in the test with HLA-A*26:03; at most 4.70 with HLA-B*58:01 (setting [21]); at most 4.70 with HLA-B*40:01 (setting [21]); at most 4.70 with HLA-B*48:01 [6]. The pKd with HLA-B*07:02 [7] (setting [21]) is at most 4.70; in the test with HLA-B*46:01 (setting [21]) it was at most 4.70; with HLA-A*31:01 (setting [21]), 6.97; with HLA-A*01:01 [8] it was at most 4.70; in the test with HLA-A*69:01 (setting [21]), at most 4.70; in the test with HLA-A*11:01 (setting [21]) it was 7.93. Besides, the negative-log Kd (pKd) with HLA-A*03:01 (setting [21]) was 7.40; with HLA-B*57:01 (setting [21]), at most 4.70.

VYAPAGVEL: the pKd with HLA-A*24:03 (source organism: Mycobacterium tuberculosis) is 8.68; in the test with HLA-C*04:01 (source organism: Mycobacterium tuberculosis C), at most 4.70; with HLA-C*05:01 it was at most 4.70.

In the test with HLA-B*07:02 [9] (source organism: Influenza A virus (A/nt/60/1968(H3N2))), YPRYPGVRC showed a pKd of 7.99.

Take YYKDDISYF: the pKd with HLA-A*26:02 (setting [22]) is 7.46; with HLA-B*07:02 [9] (setting [22]) it was at most 4.70; in the test with HLA-A*01:01 [10] it was 5.86; with HLA-A*02:06 (setting [22]), at most 4.70; in the test with HLA-B*15:17 (setting [22]), at most 4.70; with HLA-B*15:01 [5] (setting [22]), at most 4.70. In addition, the pKd in the test with HLA-B*58:01 (setting [23]) was at most 4.70; in the test with HLA-B*08:01 [11] it was at most 4.70; with HLA-A*02:01 [12] (setting [23]), at most 4.70; with HLA-A*31:01 (setting [23]) it was at most 4.70; in the test with HLA-B*18:01 [13] it was at most 4.70; in the test with HLA-A*24:03 (setting [23]) it was 8.43. Besides, the pKd was at most 4.70 with HLA-B*08:02; at most 4.70 with HLA-A*69:01 (setting [23]); at most 4.70 in the test with HLA-A*11:01 (setting [23]); at most 4.70 with HLA-A*68:02 [14]; 7.54 with HLA-C*07:02 (setting [22]); 6.24 with HLA-A*26:01. In addition, the pKd with HLA-B*57:01 (setting [23]) was at most 4.70.

For the sequence GMYGHPFAL, the pKd with HLA-B*48:01 [15] is 7.55.

On to LLDPLYFEV, for which the pKd with HLA-A*02:50 (source organism: Escherichia coli 536) is at least 10.00; with HLA-B*58:01 (setting [24]), at most 4.70; with HLA-A*24:02 [16], at most 4.70; in the test with HLA-B*40:01 (setting [24]) it was at most 4.70; with HLA-B*07:02 [7] (setting [24]), at most 4.70; in the test with HLA-B*46:01 (setting [24]), at most 4.70. In addition, the pKd with HLA-A*02:01 [12] (setting [24]) is 8.38; with HLA-A*31:01 (setting [24]) it was at most 4.70; with HLA-B*27:05, at most 4.70; with HLA-A*11:01 (setting [24]), at most 4.70; in the test with HLA-A*03:01 (setting [24]) it was at most 4.70; with HLA-B*15:01 [17], at most 4.70. This sequence gave a pKd with HLA-B*44:02 of at most 4.70.

Turning to YTYPIAHTA, the pKd was 8.96 with HLA-A*02:50 (source organism: Coxiella burnetii RSA 331), 8.40 with HLA-C*12:03, 6.07 with HLA-A*02:01 [12] (setting [25]) and 8.60 with HLA-A*69:01 (setting [25]).

In turn, WYAPVALLF had a pKd with HLA-A*24:02 [18] (source organism: Bacillus anthracis str. A0488) of at least 10.00.

In the case of SYHDRRWCF, the pKd with HLA-A*24:02 [18] (setting [26]) is 8.00; with HLA-C*07:02 (setting [26]), 7.77.

As for YMMDDLEL, the values for the pIC50 with HLA-A*24:02 [19] and in the test with HLA-B*35:01 were 5.97 and at most 4.70, respectively.

In the case of YYNAFQWAI, the pKd is 7.52 in the test with HLA-C*07:02 (setting [27]) and at most 4.70 with HLA-C*04:01 (setting [27]).

Usually pKd stands for the Kd on a negative log10 scale, so that one unit is a factor of ten. Low readings indicate a high Kd, high ones a low Kd. As a reminder, the pIC50 is the negative decadic logarithm of the IC50, by convention in mol/L. Lower therefore signals a high IC50.

Values taken from the Immune Epitope Database (IEDB).
